Measured values taken from publication PMC3264566, “Structure-Function Studies of DNA Binding Domain of Response Regulator KdpE Reveals Equal Affinity Interactions at DNA Half-Sites”.
Residue numbers refer to the chain shown, from its start.

What was measured:
Test in all cases: EMSA; up to 1:8 DNA:protein; AUC: 50 mM HEPES pH 7.4, 150 mM KCl, 1 mM EDTA, 20 C, DNA 0.5 uM in SV; EMSA: 10 mM Tris pH 8.0, 50 mM NaCl, 5% glycerol, 0.1% Triton X-100, 10 mM DTT, 1 mM EDT
Details in all cases: protein: recombinant; chain copies: 2; blunt
KdpE DBD R200A = biological target: T1, KdpE DBD R200A (Escherichia coli str. K-12 substr. …, UniProt P21866 124-225, R200A)
T1 sequence: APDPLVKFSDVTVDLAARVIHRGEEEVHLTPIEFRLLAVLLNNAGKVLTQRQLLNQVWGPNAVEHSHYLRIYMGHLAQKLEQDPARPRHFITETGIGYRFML

KdpE DBD R193A = biological target: T2, KdpE DBD R193A (Escherichia coli str. K-12 substr. …, UniProt P21866 124-225, R193A)
T2 sequence: T1 sequence with R70A, A77R

KdpE DBD T215A = biological target: T3, KdpE DBD T215A (Escherichia coli str. K-12 substr. …, UniProt P21866 124-225, T215A)
T3 sequence: T1 sequence with A77R, T92A

Measured: binding result

B1: kdpFABCBS 30 bp (dsDNA)
DNA 1: CATTTTTATACTTTTTTTACACCCCGCCCG
DNA 2: CGGGCGGGGTGTAAAAAAAGTATAAAAATG
no binding: all assays above
